Results as given in patent publication US20230101266A1 (GENEQUANTUM HEALTHCARE SUZHOU, published 2023).

B1: Ab0054 (antibody, human IgG1, kappa, V domains shown)
VH: QVQLVQSGAEVKKPGSSVKVSCKASGYRFTDYVINWVRQAPGQGLEWMGQIYPGSDSFHYNQKFQGRATLTADKSTNTAYMELSSLRSEDTAVYYCARFFEGLAYWGQGTLVTVSS
VL: DIQMTQSPSSLSASVGDRVTITCKASQGINNYLSWYQQKPGKAPKSLIYRANRLVDGVPSRFSGSGSGTDFTLTISSLQPEDFATYYCLQYDEFPLTFGGGTKVEIKR
notes: Humanized IgG; also called Ab0001-huV5-VL / Ab0001-huV4-VH
B2: Ab0052 (antibody, human IgG1, kappa, V domains shown)
VH: QVQLVQSGAEVKKPGSSVKVSCKASGYRFTDYVINWVRQAPGQGLEWMGQIYPGSDSFHYNQKFQGRATLTADKSTNTAYMELSSLRSEDTAVYYCARFFEGLAYWGQGTLVTVSS
VL: DIQMTQSPSSLSASVGDRVTITCKASQGINNYLSWYQQKPGKAPKSLIYRANRLVDGVPSRFSGSGSGQDYTLTISSLQPEDFATYYCLQYDEFPLTFGGGTKVEIKR
notes: Humanized IgG; also called Ab0001-huV3-VL / Ab0001-huV4-VH
B3: Ab0063 (antibody, human IgG1, kappa, V domains shown)
VH: QVQLVQSGAEVKKPGSSVKVSCKASGYRFTDYVINWVRQAPGQGLEWMGQIYPGSDSFHYNQKFQGRATLTADKSTNTAYMELSSLRSEDTAVYYCARFFEGLAYWGQGTLVTVSS
VL: DIQMTQSPSSLSASVGDRVTITCKASQGINNYLSWYQQKPGKAPKSLIYRANRLVSGVPSRFSGSGSGTDFTLTISSLQPEDFATYYCLQYDEFPLTFGGGTKVEIKR
notes: Humanized IgG; also called Ab0001-huV8-VL / Ab0001-huV4-VH
B4: Ab0064 (antibody, human IgG1, kappa, V domains shown)
VH: QVQLVQSGAEVKKPGSSVKVSCKASGYRFTDYVINWVRQAPGQGLEWMGQIYPGSDTFHYNQKFQGRATLTADKSTNTAYMELSSLRSEDTAVYYCARFFEGLAYWGQGTLVTVSS
VL: DIQMTQSPSSLSASVGDRVTITCKASQGINNYLSWYQQKPGKAPKSLIYRANRLVSGVPSRFSGSGSGTDFTLTISSLQPEDFATYYCLQYDEFPLTFGGGTKVEIKR
notes: Humanized IgG; also called Ab0001-huV8-VL / Ab0001-huV5-VH
B5: Ab0061 (antibody, human IgG1, kappa, V domains shown)
VH: QVQLVQSGAEVKKPGSSVKVSCKASGYRFTDYVINWVRQAPGQGLEWMGQIYPGSDTFHYNQKFQGRATLTADKSTNTAYMELSSLRSEDTAVYYCARFFEGLAYWGQGTLVTVSS
VL: DIQMTQSPSSLSASVGDRVTITCKASQGINNYLSWYQQKPGKAPKSLIYRANRLVDGVPSRFSGSGSGTDFTLTISSLQPEDFATYYCLQYDEFPLTFGGGTKVEIKR
notes: Humanized IgG; also called Ab0001-huV5-VL / Ab0001-huV5-VH
B6: Ab0062 (antibody, human IgG1, kappa, V domains shown)
VH: QVQLVQSGAEVKKPGSSVKVSCKASGYRFTDYVINWVRQAPGQGLEWMGQIYPGSDAFHYNQKFQGRATLTADKSTNTAYMELSSLRSEDTAVYYCARFFEGLAYWGQGTLVTVSS
VL: DIQMTQSPSSLSASVGDRVTITCKASQGINNYLSWYQQKPGKAPKSLIYRANRLVDGVPSRFSGSGSGTDFTLTISSLQPEDFATYYCLQYDEFPLTFGGGTKVEIKR
notes: Humanized IgG; also called Ab062; Ab0001-huV5-VL / Ab0001-huV6-VH
B7: Ab0053 (antibody, human IgG1, kappa, V domains shown)
VH: QVQLVQSGAEVKKPGSSVKVSCKASGYRFTDYVINWVRQAPGQGLEWMGQIYPGSDSFHYNQKFQGRATLTADKSTNTAYMELSSLRSEDTAVYYCARFFEGLAYWGQGTLVTVSS
VL: DIQMTQSPSSLSASVGDRVTITCKASQGINNYLSWYQQKPGKAPKSLIYRANRLVDGVPSRFSGSGSGTDYTLTISSLQPEDFATYYCLQYDEFPLTFGGGTKVEIKR
notes: Humanized IgG; also called Ab0001-huV4-VL / Ab0001-huV4-VH

Each binder was assayed against T1, recombinant extracellular domain of human TROP2 (human, UniProt P09758 27-274) (assay: SPR, Biacore 8K, antibody captured on Protein A chip, TROP2 ECD as analyte, 25 C, 1:1 model).
T1 construct: extracellular domain; Commercial protein (Acrobiosystem), used as the analyte in SPR; also called Trophoblast antigen 2; GA733-1
T1 sequence (looked up): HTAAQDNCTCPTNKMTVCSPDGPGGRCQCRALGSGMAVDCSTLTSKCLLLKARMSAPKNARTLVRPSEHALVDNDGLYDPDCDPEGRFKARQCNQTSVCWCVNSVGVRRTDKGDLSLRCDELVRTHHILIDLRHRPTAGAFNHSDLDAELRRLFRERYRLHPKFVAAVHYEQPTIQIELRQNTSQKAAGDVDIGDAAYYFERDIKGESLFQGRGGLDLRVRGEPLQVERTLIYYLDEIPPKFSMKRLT
Procedure: Binding kinetics and affinity analysis are performed. Surface Plasmon Resonance (SPR) analysis is performed on a Biacore 8K (GE healthcare) with a Sensor Chip Protein A (GE healthcare) following manufacturer's instructions. All measurements are performed at 25° C. in the HBS-EP+ buffer (10 mM HEPES, pH 7.4, 150 mM NaCl, 3 mM EDTA, and 0.05% surfactant P20). About 110-140 RU (Resonance unit) of each of the purified antibodies is captured on flow cells 2, 4, 6, 8, 10, 12, 14, 16 (i.e., the reaction surface) of the sensor chip, respectively. Flow cells 1, 3, 5, 7, 9, 11, 13 and 15 are treated with the HBS-EP+ buffer to serve as reference surfaces.
Serial dilutions of the recombinant extracellular domain of human TROP2 (i.e., the analyte) (Acrobiosystem) (243, 81, 27, 9, 3, 1, 0.333, and 0.111 nM, respectively) are prepared in HBS-EP+ buffer. Capturing of the antibodies is followed by a three-minute injection (association phase) of serial dilutions of TROP2 at a flow rate of 30 μL/min and ten minutes of buffer flow (dissociation phase). The chip surface is regenerated by two pulses of 30-second injection of 10 mM Glycine-HCl pH 1.5 at a flow rate of 50 μL/min. The collected data are processed on a Biacore 8K Evaluation software using methods known in the art, comprising the following steps: (1) setting the response on the y-axis and the start of the injection on the x-axis to zero, (2) performing double referencing by firstly subtracting the reference surface data from the reaction surface data to get the analyte injection curves, and then subtracting the buffer injection curves from the analyte injection curves, and (3) performing the kinetic analysis using the 1:1 binding model with a global fit. The result for each antibody is presented as Ka (on-rate), Kd (off-rate) and KD (affinity constant) (Table 3).
Work on B1 yielded a Kd of 0.43 nM, a koff of 0.000416 s⁻¹ and a kon of 975000 M⁻¹ s⁻¹.
Binder B2 has a Kd of 0.31 nM, a koff of 0.000321 s⁻¹ and a kon of 1.03e+06 M⁻¹ s⁻¹.
In the case of B3, the Kd is reported as 0.46 nM, the koff is reported as 0.000394 s⁻¹ and the kon is reported as 862000 M⁻¹ s⁻¹.
For B4, the Kd was 0.76 nM, the koff was 0.000547 s⁻¹ and the kon was 722000 M⁻¹ s⁻¹.
Binder B5 has a Kd of 0.62 nM, a koff of 0.000545 s⁻¹ and a kon of 874000 M⁻¹ s⁻¹.
For B6, the Kd was 0.81 nM, the koff was 0.000719 s⁻¹ and the kon was 889000 M⁻¹ s⁻¹.
Binder B7 has a Kd of 0.32 nM, a koff of 0.000326 s⁻¹ and a kon of 1.01e+06 M⁻¹ s⁻¹.
